Experiments:
Assay in all cases: BLI; Octet Red 96; His-tagged PPM1G or PPP2R1A immobilised on Ni-NTA biosensors, GST-B56δ proteins in solution (100–400 nm); 50 mM Tris pH 7.5, 300 mM NaCl, 0.01% NP-40 Igepal, 1 mM DTT; 25 °C
Conditions in all cases: both partners purified
GST-B56δ H282A = molecular target: T1, GST-B56δ H282A (human, UniProt Q14738 1-602, H282A)
T1 construct: B56δ (PPP2R5D), human cDNA, full length, point mutant; source: E. coli BL21 (DE3), purified (glutathione Sepharose)

GST-B56δ L183A = molecular target: T2, GST-B56δ L183A (human, UniProt Q14738 1-602, L183A)
T2 construct: B56δ (PPP2R5D), human cDNA, full length, point mutant; source: E. coli BL21 (DE3), purified (glutathione Sepharose)
T2 sequence (Q14738 whole entry L183A): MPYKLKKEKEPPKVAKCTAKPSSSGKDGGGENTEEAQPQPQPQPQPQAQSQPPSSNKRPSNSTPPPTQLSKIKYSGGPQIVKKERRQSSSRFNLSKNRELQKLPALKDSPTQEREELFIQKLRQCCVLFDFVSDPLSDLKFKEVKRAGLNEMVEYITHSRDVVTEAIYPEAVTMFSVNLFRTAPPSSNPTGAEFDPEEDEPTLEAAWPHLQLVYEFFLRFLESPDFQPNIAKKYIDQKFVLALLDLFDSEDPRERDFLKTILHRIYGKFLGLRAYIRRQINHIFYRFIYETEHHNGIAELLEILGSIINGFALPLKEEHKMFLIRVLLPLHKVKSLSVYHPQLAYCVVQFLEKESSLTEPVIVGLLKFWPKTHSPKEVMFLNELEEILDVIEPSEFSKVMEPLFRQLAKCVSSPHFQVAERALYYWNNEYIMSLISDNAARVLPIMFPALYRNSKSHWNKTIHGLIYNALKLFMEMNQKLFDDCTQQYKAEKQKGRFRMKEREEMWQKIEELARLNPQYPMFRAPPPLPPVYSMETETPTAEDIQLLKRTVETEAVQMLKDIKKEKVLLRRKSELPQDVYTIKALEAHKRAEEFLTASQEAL

GST-B56δ = molecular target: T3, GST-B56δ (human, UniProt Q14738 1-602)
T3 construct: PP2A regulatory subunit B56δ (PPP2R5D), human cDNA, full-length protein; also called GST-B56δ wild type (WT); GST-tagged B56δ; source: E. coli BL21 (DE3), purified (glutathione Sepharose)
T3 sequence (Q14738 whole entry, stated change not applied): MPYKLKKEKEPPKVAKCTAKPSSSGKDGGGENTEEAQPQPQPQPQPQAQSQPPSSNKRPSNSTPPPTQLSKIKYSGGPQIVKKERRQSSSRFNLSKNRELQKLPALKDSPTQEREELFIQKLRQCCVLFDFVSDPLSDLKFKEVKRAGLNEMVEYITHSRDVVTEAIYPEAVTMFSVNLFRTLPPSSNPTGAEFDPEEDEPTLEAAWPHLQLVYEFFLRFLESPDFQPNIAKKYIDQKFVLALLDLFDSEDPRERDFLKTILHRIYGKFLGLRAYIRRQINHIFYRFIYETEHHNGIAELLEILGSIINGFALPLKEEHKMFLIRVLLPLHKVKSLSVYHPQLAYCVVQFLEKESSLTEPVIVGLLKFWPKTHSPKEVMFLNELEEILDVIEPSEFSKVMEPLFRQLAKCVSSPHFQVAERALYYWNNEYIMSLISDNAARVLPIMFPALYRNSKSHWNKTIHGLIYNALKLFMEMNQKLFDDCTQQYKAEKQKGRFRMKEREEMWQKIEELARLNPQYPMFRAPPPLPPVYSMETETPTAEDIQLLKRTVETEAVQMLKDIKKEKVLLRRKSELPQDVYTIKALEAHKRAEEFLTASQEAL

T1 sequence (Q14738 whole entry H282A): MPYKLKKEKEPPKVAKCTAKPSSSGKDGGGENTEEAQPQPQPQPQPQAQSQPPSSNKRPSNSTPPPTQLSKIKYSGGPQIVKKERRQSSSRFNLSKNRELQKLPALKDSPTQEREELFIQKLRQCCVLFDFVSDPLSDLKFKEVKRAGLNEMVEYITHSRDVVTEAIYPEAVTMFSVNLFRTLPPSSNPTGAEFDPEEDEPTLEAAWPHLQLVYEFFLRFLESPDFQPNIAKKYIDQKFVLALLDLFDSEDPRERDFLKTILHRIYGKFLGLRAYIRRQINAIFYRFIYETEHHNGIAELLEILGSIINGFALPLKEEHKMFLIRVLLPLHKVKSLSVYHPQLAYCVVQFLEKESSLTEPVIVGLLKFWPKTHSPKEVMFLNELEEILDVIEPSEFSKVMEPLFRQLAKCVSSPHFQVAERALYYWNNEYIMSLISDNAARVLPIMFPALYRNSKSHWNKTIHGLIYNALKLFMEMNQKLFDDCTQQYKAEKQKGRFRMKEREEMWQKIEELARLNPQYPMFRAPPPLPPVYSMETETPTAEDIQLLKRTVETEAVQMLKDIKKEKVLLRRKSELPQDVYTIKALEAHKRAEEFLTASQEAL

B1: 6xHis-tagged PPM1G (enzyme, human, UniProt O15355 1-546, looked up)
chain: MGAYLSQPNTVKCSGDGVGAPRLPLPYGFSAMQGWRVSMEDAHNCIPELDSETAMFSVYDGHGGEEVALYCAKYLPDIIKDQKAYKEGKLQKALEDAFLAIDAKLTTEEVIKELAQIAGRPTEDEDEKEKVADEDDVDNEEAALLHEEATMTIEELLTRYGQNCHKGPPHSKSGGGTGEEPGSQGLNGEAGPEDSTRETPSQENGPTAKAYTGFSSNSERGTEAGQVGEPGIPTGEAGPSCSSASDKLPRVAKSKFFEDSEDESDEAEEEEEDSEECSEEEDGYSSEEAENEEDEDDTEEAEEDDEEEEEEMMVPGMEGKEEPGSDSGTTAVVALIRGKQLIVANAGDSRCVVSEAGKALDMSYDHKPEDEVELARIKNAGGKVTMDGRVNGGLNLSRAIGDHFYKRNKNLPPEEQMISALPDIKVLTLTDDHEFMVIACDGIWNVMSSQEVVDFIQSKISQRDENGELRLLSSIVEELLDQCLAPDTSGDGTGCDNMTCIIICFKPRNTAELQPESGKRKLEEVLSTEGAEENGNSDKKKKAKRD
notes: PPM1G (PP2Cγ); The cloning into a His-tag vector is not described in the methods; also called His-PPM1G; recombinant PPM1G; source: recombinant
Kd (GST-B56δ H282A): 4.38 nM | Kd (GST-B56δ L183A): 5.59 nM | Kd (GST-B56δ): 5.04 nM
